Reference: publication PMC4615246 (Nucleus, 2015)
One block for each binder: values may come before it.

Columns and labels:
Experiment in all cases: LacI/LacO array recruitment in cells
LacI-CFP-Nup133 = target: T1, LacI-CFP-Nup133 (human, UniProt Q8WUM0 1-1156)
T1 sequence: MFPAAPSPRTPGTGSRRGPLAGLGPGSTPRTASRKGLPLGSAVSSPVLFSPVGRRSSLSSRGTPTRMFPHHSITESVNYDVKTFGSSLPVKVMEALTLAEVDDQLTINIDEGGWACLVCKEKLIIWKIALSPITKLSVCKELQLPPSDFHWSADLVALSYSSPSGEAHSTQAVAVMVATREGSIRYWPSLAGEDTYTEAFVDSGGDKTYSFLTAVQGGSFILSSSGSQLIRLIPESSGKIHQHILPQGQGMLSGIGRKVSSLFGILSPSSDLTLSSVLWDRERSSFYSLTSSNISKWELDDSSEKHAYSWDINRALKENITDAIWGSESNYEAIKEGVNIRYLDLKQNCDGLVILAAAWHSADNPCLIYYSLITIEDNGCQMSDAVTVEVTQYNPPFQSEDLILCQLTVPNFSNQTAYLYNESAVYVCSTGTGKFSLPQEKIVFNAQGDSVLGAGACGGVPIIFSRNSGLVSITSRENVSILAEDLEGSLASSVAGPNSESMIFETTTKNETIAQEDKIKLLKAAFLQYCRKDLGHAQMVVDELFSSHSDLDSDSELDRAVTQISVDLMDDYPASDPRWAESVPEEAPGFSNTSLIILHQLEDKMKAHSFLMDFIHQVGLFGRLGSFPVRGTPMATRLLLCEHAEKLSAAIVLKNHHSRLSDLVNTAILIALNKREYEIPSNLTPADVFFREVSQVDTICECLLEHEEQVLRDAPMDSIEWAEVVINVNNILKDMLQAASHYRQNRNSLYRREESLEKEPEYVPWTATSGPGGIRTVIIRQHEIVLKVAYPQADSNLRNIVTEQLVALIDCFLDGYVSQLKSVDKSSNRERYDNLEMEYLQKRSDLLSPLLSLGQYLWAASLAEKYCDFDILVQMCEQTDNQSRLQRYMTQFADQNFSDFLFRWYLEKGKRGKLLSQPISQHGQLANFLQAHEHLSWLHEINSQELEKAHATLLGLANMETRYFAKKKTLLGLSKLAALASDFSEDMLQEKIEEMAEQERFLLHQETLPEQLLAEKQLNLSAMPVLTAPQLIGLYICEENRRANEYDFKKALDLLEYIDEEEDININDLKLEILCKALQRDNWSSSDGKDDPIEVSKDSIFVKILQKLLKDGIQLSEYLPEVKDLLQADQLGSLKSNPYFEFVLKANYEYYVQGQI

LacI-CFP-Nup153 = target: T2, LacI-CFP-Nup153 (human, UniProt P49790 1-1475)
T2 sequence: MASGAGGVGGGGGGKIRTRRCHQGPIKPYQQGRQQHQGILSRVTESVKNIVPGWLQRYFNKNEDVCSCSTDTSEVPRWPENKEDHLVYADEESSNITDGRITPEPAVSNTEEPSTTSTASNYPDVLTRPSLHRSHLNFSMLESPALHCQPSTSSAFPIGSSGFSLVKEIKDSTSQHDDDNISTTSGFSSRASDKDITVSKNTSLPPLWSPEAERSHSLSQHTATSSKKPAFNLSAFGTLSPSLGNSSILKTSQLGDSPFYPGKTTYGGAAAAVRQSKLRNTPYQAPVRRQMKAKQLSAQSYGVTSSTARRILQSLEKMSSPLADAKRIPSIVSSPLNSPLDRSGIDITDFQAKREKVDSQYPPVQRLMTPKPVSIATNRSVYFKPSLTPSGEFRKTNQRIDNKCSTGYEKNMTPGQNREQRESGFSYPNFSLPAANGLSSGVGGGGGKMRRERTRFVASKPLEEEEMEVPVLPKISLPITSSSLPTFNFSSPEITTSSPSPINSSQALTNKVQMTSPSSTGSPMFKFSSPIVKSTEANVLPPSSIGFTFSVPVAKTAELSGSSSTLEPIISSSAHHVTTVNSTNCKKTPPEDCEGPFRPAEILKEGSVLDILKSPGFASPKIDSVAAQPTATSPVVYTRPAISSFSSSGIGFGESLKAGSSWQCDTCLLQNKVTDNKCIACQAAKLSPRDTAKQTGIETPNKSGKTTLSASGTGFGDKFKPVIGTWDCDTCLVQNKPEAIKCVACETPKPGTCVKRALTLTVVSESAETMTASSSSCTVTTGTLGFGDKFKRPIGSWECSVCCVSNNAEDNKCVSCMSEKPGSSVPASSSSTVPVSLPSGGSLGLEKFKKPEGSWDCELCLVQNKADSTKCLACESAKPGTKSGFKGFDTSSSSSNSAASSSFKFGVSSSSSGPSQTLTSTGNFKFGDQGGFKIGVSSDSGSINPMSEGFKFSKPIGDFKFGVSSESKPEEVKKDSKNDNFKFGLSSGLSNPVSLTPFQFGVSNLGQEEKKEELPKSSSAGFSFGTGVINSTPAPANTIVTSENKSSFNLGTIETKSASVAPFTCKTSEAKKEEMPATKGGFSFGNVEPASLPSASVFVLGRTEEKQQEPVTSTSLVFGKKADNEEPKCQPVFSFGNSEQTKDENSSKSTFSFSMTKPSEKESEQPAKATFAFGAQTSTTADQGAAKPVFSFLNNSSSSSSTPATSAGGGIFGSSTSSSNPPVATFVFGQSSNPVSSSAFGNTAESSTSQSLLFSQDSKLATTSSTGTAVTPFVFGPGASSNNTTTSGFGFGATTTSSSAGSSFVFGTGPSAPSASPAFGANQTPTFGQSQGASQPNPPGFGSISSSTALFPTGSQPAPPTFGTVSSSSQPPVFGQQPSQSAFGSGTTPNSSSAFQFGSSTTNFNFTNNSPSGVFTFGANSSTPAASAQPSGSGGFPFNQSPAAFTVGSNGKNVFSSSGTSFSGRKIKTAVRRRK

LacI-CFP-Nup50 = target: T3, LacI-CFP-Nup50 (human, UniProt Q9UKX7 1-468)
T3 sequence: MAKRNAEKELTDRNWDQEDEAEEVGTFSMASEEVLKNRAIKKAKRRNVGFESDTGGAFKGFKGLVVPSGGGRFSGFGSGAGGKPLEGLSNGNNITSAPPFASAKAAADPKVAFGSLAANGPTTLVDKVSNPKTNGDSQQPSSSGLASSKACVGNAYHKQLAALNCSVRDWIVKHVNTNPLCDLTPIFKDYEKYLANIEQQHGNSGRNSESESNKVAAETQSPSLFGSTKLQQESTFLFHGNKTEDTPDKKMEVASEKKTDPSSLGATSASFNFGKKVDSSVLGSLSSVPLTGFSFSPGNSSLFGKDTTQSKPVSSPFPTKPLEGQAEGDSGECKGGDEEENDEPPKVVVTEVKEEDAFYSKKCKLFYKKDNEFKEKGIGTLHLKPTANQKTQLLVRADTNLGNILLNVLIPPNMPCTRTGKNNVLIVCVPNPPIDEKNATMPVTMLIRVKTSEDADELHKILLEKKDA

LacI-CFP-Nup214 = LacI-CFP-Nup214 (human, UniProt P35658 1-2090)
LacI-CFP-Nup214, sequence (P35658 whole entry): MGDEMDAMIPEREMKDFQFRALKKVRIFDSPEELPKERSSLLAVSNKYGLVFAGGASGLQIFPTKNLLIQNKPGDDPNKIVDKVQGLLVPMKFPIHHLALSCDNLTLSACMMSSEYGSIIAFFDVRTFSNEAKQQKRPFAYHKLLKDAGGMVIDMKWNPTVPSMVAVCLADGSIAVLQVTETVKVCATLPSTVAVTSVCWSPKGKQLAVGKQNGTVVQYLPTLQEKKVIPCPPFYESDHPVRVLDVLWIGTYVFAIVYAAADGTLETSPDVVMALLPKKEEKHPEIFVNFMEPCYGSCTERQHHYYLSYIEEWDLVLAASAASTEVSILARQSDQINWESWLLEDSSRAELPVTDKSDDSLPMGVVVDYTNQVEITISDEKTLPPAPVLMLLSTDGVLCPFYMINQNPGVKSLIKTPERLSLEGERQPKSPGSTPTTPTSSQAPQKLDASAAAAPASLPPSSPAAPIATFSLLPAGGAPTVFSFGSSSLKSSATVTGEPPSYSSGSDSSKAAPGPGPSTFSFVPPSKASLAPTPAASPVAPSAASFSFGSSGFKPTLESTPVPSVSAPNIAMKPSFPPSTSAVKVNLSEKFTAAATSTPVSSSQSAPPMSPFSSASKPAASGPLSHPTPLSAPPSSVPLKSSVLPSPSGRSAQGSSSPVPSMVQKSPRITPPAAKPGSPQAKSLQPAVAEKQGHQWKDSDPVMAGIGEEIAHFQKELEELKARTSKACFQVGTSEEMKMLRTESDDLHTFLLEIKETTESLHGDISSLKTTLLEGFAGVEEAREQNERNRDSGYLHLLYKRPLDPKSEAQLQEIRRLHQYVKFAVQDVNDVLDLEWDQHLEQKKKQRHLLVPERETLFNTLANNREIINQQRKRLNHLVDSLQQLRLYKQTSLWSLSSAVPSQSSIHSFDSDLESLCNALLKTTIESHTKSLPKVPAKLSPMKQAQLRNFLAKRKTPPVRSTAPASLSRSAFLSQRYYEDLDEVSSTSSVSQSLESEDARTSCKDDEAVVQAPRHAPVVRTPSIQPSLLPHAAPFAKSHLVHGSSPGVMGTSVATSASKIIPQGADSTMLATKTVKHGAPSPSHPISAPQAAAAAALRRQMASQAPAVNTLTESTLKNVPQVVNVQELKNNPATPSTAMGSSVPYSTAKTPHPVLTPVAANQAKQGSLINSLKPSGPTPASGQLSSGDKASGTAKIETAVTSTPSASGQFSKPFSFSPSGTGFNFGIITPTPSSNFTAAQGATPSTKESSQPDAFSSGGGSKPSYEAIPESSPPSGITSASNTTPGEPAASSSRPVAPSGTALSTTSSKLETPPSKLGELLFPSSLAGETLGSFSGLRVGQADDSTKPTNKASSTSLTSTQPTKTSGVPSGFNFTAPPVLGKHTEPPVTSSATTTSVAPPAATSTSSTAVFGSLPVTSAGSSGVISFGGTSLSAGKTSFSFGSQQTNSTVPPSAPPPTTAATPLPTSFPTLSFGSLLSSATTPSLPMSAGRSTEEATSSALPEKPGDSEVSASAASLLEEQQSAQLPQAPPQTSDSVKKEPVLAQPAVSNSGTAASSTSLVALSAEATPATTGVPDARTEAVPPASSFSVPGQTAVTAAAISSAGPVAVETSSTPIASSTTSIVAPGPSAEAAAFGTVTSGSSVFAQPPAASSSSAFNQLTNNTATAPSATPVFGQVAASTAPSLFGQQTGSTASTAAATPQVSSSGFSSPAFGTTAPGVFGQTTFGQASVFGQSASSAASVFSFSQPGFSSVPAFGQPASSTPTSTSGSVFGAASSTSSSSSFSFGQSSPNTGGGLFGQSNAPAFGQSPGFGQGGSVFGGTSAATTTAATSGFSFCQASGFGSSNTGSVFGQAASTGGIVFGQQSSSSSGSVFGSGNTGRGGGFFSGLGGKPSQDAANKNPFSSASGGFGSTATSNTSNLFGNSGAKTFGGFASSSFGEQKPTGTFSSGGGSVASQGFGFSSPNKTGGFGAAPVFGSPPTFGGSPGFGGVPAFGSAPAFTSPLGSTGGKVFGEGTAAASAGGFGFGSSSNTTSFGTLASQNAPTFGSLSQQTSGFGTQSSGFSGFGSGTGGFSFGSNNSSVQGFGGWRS

LacI-CFP-Nup107 = target: T4, LacI-CFP-Nup107 (human, UniProt P57740 1-925)
T4 sequence: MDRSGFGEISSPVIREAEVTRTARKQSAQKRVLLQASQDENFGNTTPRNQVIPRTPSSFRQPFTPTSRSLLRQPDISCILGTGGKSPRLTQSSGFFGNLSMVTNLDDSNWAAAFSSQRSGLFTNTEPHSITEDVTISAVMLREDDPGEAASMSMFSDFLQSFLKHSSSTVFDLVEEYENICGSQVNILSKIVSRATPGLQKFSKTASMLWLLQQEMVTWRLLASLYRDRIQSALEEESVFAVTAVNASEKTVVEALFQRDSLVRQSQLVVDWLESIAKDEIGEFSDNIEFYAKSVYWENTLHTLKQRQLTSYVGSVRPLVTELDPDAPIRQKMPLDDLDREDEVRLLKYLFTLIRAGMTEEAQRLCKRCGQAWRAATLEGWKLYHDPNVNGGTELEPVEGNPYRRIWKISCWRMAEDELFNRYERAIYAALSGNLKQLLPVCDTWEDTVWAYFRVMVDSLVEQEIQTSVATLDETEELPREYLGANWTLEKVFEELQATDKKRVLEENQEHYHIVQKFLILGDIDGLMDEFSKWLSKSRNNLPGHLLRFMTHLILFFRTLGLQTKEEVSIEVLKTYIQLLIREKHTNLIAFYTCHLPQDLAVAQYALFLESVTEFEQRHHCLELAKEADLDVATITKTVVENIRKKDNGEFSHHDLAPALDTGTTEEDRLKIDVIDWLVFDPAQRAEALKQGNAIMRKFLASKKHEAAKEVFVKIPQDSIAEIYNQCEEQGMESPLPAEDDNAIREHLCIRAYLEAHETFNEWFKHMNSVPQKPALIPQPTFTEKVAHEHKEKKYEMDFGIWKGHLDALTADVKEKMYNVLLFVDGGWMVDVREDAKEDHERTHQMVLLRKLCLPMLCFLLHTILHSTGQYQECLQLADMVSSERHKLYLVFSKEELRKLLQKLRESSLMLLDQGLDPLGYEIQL

- percent of transfected cells showing colocalization (LacI-CFP-Nup133): 70%
- percent of transfected cells showing colocalization (LacI-CFP-Nup153): 11%
- percent of transfected cells showing colocalization (LacI-CFP-Nup50): 11%
- percent of transfected cells showing colocalization (LacI-CFP-Nup214): 90%
B1: Nup98 (endogenous) (natural protein)
chain: MFNKSFGTPFGGGTGGFGTTSTFGQNTGFGTTSGGAFGTSAFGSSNNTGGLFGNSQTKPGGLFGTSSFSQPATSTSTGFGFGTSTGTANTLFGTASTGTSLFSSQNNAFAQNKPTGFGNFGTSTSSGGLFGTTNTTSNPFGSTSGSLFGPSSFTAAPTGTTIKFNPPTGTDTMVKAGVSTNISTKHQCITAMKEYESKSLEELRLEDYQANRKGPQNQVGAGTTTGLFGSSPATSSATGLFSSSTTNSGFAYGQNKTAFGTSTTGFGTNPGGLFGQQNQQTTSLFSKPFGQATTTQNTGFSFGNTSTIGQPSTNTMGLFGVTQASQPGGLFGTATNTSTGTAFGTGTGLFGQTNTGFGAVGSTLFGNNKLTTFGSSTTSAPSFGTTSGGLFGNKPTLTLGTNTNTSNFGFGTNTSGNSIFGSKPAPGTLGTGLGAGFGTALGAGQASLFGNNQPKIGGPLGTGAFGAPGFNTTTATLGFGAPQAPVALTDPNASAAQQAVLQQHINSLTYSPFGDSPLFRNPMSDPKKKEERLKPTNPAAQKALTTPTHYKLTPRPATRVRPKALQTTGTAKSHLFDGLDDDEPSLANGAFMPKKSIKKLVLKNLNNSNLFSPVNRDSENLASPSEYPENGERFSFLSKPVDENHQQDGDEDSLVSHFYTNPIAKPIPQTPESAGNKHSNSNSVDDTIVALNMRAALRNGLEGSSEETSFHDESLQDDREEIENNSYHMHPAGIILTKVGYYTIPSMDDLAKITNEKGECIVSDFTIGRKGYGSIYFEGDVNLTNLNLDDIVHIRRKEVVVYLDDNQKPPVGEGLNRKAEVTLDGVWPTDKTSRCLIKSPDRLADINYEGRLEAVSRKQGAQFKEYRPETGSWVFKVSHF

- percent of transfected cells showing colocalization (LacI-CFP-Nup107): 94%
- percent of transfected cells showing colocalization (LacI-CFP-Nup153): 35%
- percent of transfected cells showing colocalization (LacI-CFP-Nup50): 11%
- percent of transfected cells showing colocalization (LacI-CFP-Nup214): 35%
B2: Nup133 (endogenous) (natural protein)
chain: T1 sequence
